In assay [1] the target is T1, Human neutrophil-derived myeloperoxidase (nMPO) (human), P05164. In words: mass photometry; single-molecule mass photometry of intact nMPO on coverslips with silicone gaskets; apparent; diprotomer (ααββ) to monoprotomers (αβ).
Assay [2] deals with T1, Human neutrophil-derived …. In words: native MS; whole unfractionated intact nMPO infused by nano-ESI (gold-coated capillaries) into a modified Q-Exactive, positive ion polarity.

B1: Human neutrophil-derived myeloperoxidase (nMPO), P05164 279-745; P05164 279-745 (enzyme)
chain 1: not shown
chain 2: VNCETSCVQQPPCFPLKIPPNDPRIKNQADCIPFFRSCPACPGSNITIRNQINALTSFVDASMVYGSEEPLARNLRNMSNQLGLLAVNQRFQDNGRALLPFDNLHDDPCLLTNRSARIPCFLAGDTRSSEMPELTSMHTLLLREHNRLATELKSLNPRWDGERLYQEARKIVGAMVQIITYRDYLPLVLGPTAMRKYLPTYRSYNDSVDPRIANVFTNAFRYGHTLIQPFMFRLDNRYQPMEPNPRVPLSRVFFASWRVVLEGGIDPILRGLMATPAKLNRQNQIAVDEIRERLFEQVMRIGLDLPALNMQRSRDHGLPGYNAWRRFCGLPQPETVGQLGTVLRNLKLARKLMEQYGTPNNIDIWMGGVSEPLKRKGRVGPLLACIIGTQFRKLRDGDRFWWENEGVFSMQQRQALAQISLPRIICDNTGITTVSKNNIFMSNSYPRDFVNCSTLPALNLASWREAS
modifications: heme covalently links the α- and β-chains; Met251 and Met253 oxidation and Trp255 oxidation variants; polypeptide truncation variants | N-glycans at Asn323 and Asn483 (mainly paucimannosidic M2F-M3F), Asn355 and Asn391 (mainly oligomannosidic M5-M6), Asn729 (largely unoccupied or GlcNAc1-GlcNAc1F); Met and Trp mono-/di-oxidation, Tyr mono-chlorination; Cys319-Cys319 bridge between the two …
As for B1, in assay [1], the Kd came out at 0.05 nM, the percent diprotomer was 93%, the percent monoprotomer stood at 7% and the stoichiometry N came out at 2. Also, the stoichiometry N in assay [2] amounted to 2.
